Reference: article PMC10206564

Target: His954 (UniProt position 954, […])
Assay: NMR
Settings: 30 mM NaCl plus 20 mM sodium phosphate, Folded post-fusion six-helix bundle (6HB) state, 0.15 mM protein, no lipid

Spike glycoprotein S2 HR1-HR2 fusion core ('Core') Q954H variant (Severe acute respiratory syndrome coronavirus 2 (SARS-CoV-2); Q954H)
pKa: 6.40
